From patent publication US20150074844A1 (PURDUE RESEARCH FOUNDATION, published 2015)

What was measured:
PYL4-nLUC = target: T1, PYL4-nLUC (Arabidopsis thaliana, UniProt O80920 1-207); experiment: firefly luciferase complementation in protoplasts (stronger group)
T1 construct: LUC complementation assay in protoplasts; also called PYLs-nLUC; not shown: N-terminal domain of firefly luciferase
T1 sequence: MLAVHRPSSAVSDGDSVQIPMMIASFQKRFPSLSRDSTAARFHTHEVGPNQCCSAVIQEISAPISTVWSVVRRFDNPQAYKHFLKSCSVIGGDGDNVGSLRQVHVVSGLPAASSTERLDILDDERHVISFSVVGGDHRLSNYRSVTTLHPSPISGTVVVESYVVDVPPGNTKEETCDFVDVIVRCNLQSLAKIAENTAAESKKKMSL
Experimental: (§1) To further characterize the interactions between PYL13 and PYLs in vivo, their interactions in protoplasts were examined by the firefly luciferase (LUC) complementation assay. PYL13 was fused to the C-terminal domain of LUC (PYL13-cLUC), and PYLs were fused to the N-terminal domain of LUC (PYLs-nLUC), and co-expressed in protoplasts. After transfection, protoplasts were incubated overnight under light at room temperature, and the LUC activities in living protoplasts were measured. Error bars indicate s.e.m. (n=6). […] PYL13 binds more strongly to PYR1, PYL1-5, PYL7, and PYL10-11 than to PYL6, PYL8-9, or PYL13 (FIG. 5B).

PYL10-nLUC = target: T2, PYL10-nLUC (Arabidopsis thaliana, UniProt Q8H1R0 1-183); experiment: as above
T2 construct: LUC complementation assay in protoplasts; also called PYLs-nLUC; not shown: N-terminal domain of firefly luciferase
T2 sequence: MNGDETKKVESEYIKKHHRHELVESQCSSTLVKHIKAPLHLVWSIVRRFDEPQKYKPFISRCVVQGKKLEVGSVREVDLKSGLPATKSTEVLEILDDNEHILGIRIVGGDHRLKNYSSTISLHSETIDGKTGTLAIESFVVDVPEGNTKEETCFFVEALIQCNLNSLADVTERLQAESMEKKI
Experimental: as §1

PYL7-nLUC = target: T3, PYL7-nLUC (Arabidopsis thaliana, UniProt Q1ECF1 1-211); experiment: as above
T3 construct: LUC complementation assay in protoplasts; also called PYLs-nLUC; not shown: N-terminal domain of firefly luciferase
T3 sequence: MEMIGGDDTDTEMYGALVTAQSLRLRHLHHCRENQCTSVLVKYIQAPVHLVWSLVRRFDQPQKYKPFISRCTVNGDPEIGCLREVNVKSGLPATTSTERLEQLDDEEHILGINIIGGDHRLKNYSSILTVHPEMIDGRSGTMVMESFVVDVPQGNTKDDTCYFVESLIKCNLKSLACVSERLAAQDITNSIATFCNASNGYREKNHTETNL
Experimental: as §1

PYL3-nLUC = target: T4, PYL3-nLUC (Arabidopsis thaliana, UniProt Q9SSM7 1-209); experiment: as above
T4 construct: LUC complementation assay in protoplasts; also called PYLs-nLUC; not shown: N-terminal domain of firefly luciferase
T4 sequence: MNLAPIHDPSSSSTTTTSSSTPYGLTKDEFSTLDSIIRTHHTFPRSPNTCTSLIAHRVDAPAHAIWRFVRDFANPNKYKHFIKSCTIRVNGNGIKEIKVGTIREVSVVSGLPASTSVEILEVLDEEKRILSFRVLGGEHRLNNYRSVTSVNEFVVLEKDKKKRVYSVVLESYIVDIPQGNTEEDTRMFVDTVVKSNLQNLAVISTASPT
Experimental: as §1

PYR1-nLUC = target: T5, PYR1-nLUC (Arabidopsis thaliana, UniProt O49686 1-191); experiment: as above
T5 construct: LUC complementation assay in protoplasts; also called PYLs-nLUC; not shown: N-terminal domain of firefly luciferase
T5 sequence: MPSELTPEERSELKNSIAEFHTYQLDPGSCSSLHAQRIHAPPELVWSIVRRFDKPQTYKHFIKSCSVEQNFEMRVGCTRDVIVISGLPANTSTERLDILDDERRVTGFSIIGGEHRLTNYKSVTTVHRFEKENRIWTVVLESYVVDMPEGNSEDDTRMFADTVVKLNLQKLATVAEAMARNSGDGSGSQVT
Experimental: as §1

PYL5-nLUC = target: T6, PYL5-nLUC (Arabidopsis thaliana, UniProt Q9FLB1 1-203); experiment: as above
T6 construct: LUC complementation assay in protoplasts; also called PYLs-nLUC; not shown: N-terminal domain of firefly luciferase
T6 sequence: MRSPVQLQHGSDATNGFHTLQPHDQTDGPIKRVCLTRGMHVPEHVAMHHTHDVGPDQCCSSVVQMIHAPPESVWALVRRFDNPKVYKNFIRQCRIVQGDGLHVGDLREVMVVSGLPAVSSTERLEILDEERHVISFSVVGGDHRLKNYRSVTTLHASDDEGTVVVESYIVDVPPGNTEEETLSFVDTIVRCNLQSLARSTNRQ
Experimental: as §1

PYL13-nLUC = target: T7, PYL13-nLUC (Arabidopsis thaliana, UniProt Q9SN51 1-164); experiment: firefly luciferase complementation in protoplasts (weaker group; PYL13 with itself)
T7 construct: LUC complementation assay in protoplasts; also called PYL13 fused to the N-terminal domain of LUC; not shown: N-terminal domain of firefly luciferase
T7 sequence: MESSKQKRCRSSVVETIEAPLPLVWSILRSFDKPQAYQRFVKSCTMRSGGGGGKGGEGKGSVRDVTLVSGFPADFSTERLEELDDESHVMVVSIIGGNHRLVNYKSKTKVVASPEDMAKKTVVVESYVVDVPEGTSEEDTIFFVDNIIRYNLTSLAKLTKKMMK
Experimental: as §1

PYL8-nLUC = target: T8, PYL8-nLUC (Arabidopsis thaliana, UniProt Q9FGM1 1-188); experiment: firefly luciferase complementation in protoplasts (weaker group)
T8 construct: LUC complementation assay in protoplasts; also called PYLs-nLUC; not shown: N-terminal domain of firefly luciferase
T8 sequence: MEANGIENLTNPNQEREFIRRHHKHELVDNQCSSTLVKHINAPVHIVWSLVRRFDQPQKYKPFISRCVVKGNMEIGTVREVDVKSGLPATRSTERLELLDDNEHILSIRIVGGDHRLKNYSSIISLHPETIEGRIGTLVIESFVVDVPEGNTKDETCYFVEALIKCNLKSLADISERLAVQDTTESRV
Experimental: as §1

PYL6-nLUC = target: T9, PYL6-nLUC (Arabidopsis thaliana, UniProt Q8S8E3 1-215); experiment: as above
T9 construct: LUC complementation assay in protoplasts; also called PYLs-nLUC; not shown: N-terminal domain of firefly luciferase
T9 sequence: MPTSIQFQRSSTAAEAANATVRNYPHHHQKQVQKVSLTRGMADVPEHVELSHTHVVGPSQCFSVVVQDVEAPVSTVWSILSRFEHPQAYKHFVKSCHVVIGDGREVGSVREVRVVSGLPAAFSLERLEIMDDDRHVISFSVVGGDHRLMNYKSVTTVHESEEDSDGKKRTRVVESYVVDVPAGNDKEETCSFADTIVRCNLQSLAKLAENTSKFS
Experimental: as §1

[1] = target: T10, HAI2 fused to the GAL4-activating domain (AD) (Arabidopsis, UniProt Q9LNW3 1-442); experiment: yeast two-hybrid, growth on media lacking His and His/Ade, with and without ABA (ABA-independent)
T10 construct: Yeast two-hybrid construct
T10 sequence (looked up): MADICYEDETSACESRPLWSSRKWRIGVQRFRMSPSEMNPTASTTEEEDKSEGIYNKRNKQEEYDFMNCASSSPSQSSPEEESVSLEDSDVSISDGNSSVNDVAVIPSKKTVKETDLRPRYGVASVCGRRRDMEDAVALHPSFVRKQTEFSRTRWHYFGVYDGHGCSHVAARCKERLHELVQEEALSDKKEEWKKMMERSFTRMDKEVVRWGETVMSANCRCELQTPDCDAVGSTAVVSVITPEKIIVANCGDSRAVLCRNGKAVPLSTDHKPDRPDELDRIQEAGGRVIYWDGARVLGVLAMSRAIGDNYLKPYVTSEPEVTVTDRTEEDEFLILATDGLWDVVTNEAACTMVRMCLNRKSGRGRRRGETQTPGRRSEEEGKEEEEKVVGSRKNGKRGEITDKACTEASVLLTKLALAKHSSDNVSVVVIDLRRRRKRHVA
Experimental: To investigate how PYL13 may function in plants, the interaction between PYL13 and clade A PP2Cs in yeast two-hybrid assays was examined, as shown in FIG. 3. […] PYL13 binds strongly with ABI1, ABI2, PP2CA, and HAI2 but weakly with HAB1 and HAI1 (FIG. 3A). […] PYL13 fused to the GAL4-DNA-binding domain (BD) was used as […]. Interaction was determined by growth assay on media lacking His and His/Ade in the presence and absence of ABA. Dilutions (10⁻¹, 10⁻², and 10⁻³) of saturated cultures were spotted onto the plates, which were photographed after 5 days.

Measured: binding result

B1: PYL13-cLUC (other)
chain: MESSKQKRCRSSVVETIEAPLPLVWSILRSFDKPQAYQRFVKSCTMRSGGGGGKGGEGKGSVRDVTLVSGFPADFSTERLEELDDESHVMVVSIIGGNHRLVNYKSKTKVVASPEDMAKKTVVVESYVVDVPEGTSEEDTIFFVDNIIRYNLTSLAKLTKKMMK
notes: LUC complementation assay in protoplasts; also called PYL13 fused to the C-terminal domain of LUC; not shown: C-terminal domain of firefly luciferase
binds: PYL4-nLUC | PYL10-nLUC | PYL7-nLUC | PYL3-nLUC | PYR1-nLUC | PYL5-nLUC | PYL13-nLUC | PYL8-nLUC | PYL6-nLUC

B2: PYL13 fused to the GAL4-DNA-binding domain (BD) (other, not shown: small tags and cut ends)
chain: MESSKQKRCRSSVVETIEAPLPLVWSILRSFDKPQAYQRFVKSCTMRSGGGGGKGGEGKGSVRDVTLVSGFPADFSTERLEELDDESHVMVVSIIGGNHRLVNYKSKTKVVASPEDMAKKTVVVESYVVDVPEGTSEEDTIFFVDNIIRYNLTSLAKLTKKMMK
notes: also called BD-PYL13
binds: [1]
